Assay results as given in the Human Domainome abundance scans (Beltran et al. 2025).
± gives the uncertainty stated by the source.

B1: Far upstream element-binding protein 1, residues 184 to 257; numbered along this chain, Q96AE4 (parent)
chain: GNAVQEIMIPASKAGLVIGKGGETIKQLQERAGVKMVMIQDGPQNTGADKPLRITGDPYKVQQAKEMVLELIRD

Variants of: B1
Assay: abundance fitness (aPCA) (normalised: wild type 0, dead -1); higher = more abundant; growth selection in yeast, the domain comes from the species named
Details: Homo sapiens

Variant | abundance fitness
GNFVQEIMIPASKAGLVIGKGGETIKQLQERAGVKMVMIQDGPQNTGADKPLRITGDPYKVQQAKEMVLELIRD [A3F] | 0.165 ± 0.053
GNEVQEIMIPASKAGLVIGKGGETIKQLQERAGVKMVMIQDGPQNTGADKPLRITGDPYKVQQAKEMVLELIRD [A3E] | 0.039 ± 0.036
GNSVQEIMIPASKAGLVIGKGGETIKQLQERAGVKMVMIQDGPQNTGADKPLRITGDPYKVQQAKEMVLELIRD [A3S] | 0.196 ± 0.032
GNVVQEIMIPASKAGLVIGKGGETIKQLQERAGVKMVMIQDGPQNTGADKPLRITGDPYKVQQAKEMVLELIRD [A3V] | 0.011 ± 0.032
GNQVQEIMIPASKAGLVIGKGGETIKQLQERAGVKMVMIQDGPQNTGADKPLRITGDPYKVQQAKEMVLELIRD [A3Q] | 0.133 ± 0.038
GNIVQEIMIPASKAGLVIGKGGETIKQLQERAGVKMVMIQDGPQNTGADKPLRITGDPYKVQQAKEMVLELIRD [A3I] | 0.255 ± 0.053
GNNVQEIMIPASKAGLVIGKGGETIKQLQERAGVKMVMIQDGPQNTGADKPLRITGDPYKVQQAKEMVLELIRD [A3N] | 0.057 ± 0.053
GNTVQEIMIPASKAGLVIGKGGETIKQLQERAGVKMVMIQDGPQNTGADKPLRITGDPYKVQQAKEMVLELIRD [A3T] | 0.235 ± 0.037
GNWVQEIMIPASKAGLVIGKGGETIKQLQERAGVKMVMIQDGPQNTGADKPLRITGDPYKVQQAKEMVLELIRD [A3W] | 0.116 ± 0.033
GNHVQEIMIPASKAGLVIGKGGETIKQLQERAGVKMVMIQDGPQNTGADKPLRITGDPYKVQQAKEMVLELIRD [A3H] | -0.044 ± 0.05
GNGVQEIMIPASKAGLVIGKGGETIKQLQERAGVKMVMIQDGPQNTGADKPLRITGDPYKVQQAKEMVLELIRD [A3G] | -0.059 ± 0.027
GNMVQEIMIPASKAGLVIGKGGETIKQLQERAGVKMVMIQDGPQNTGADKPLRITGDPYKVQQAKEMVLELIRD [A3M] | 0.256 ± 0.039
GNLVQEIMIPASKAGLVIGKGGETIKQLQERAGVKMVMIQDGPQNTGADKPLRITGDPYKVQQAKEMVLELIRD [A3L] | 0.172 ± 0.031
GNKVQEIMIPASKAGLVIGKGGETIKQLQERAGVKMVMIQDGPQNTGADKPLRITGDPYKVQQAKEMVLELIRD [A3K] | 0.181 ± 0.039
GNPVQEIMIPASKAGLVIGKGGETIKQLQERAGVKMVMIQDGPQNTGADKPLRITGDPYKVQQAKEMVLELIRD [A3P] | 0.109 ± 0.037
GNRVQEIMIPASKAGLVIGKGGETIKQLQERAGVKMVMIQDGPQNTGADKPLRITGDPYKVQQAKEMVLELIRD [A3R] | 0.17 ± 0.027
GNYVQEIMIPASKAGLVIGKGGETIKQLQERAGVKMVMIQDGPQNTGADKPLRITGDPYKVQQAKEMVLELIRD [A3Y] | 0.158 ± 0.057
GNAVQCIMIPASKAGLVIGKGGETIKQLQERAGVKMVMIQDGPQNTGADKPLRITGDPYKVQQAKEMVLELIRD [E6C] | -0.366 ± 0.044
GNAVQAIMIPASKAGLVIGKGGETIKQLQERAGVKMVMIQDGPQNTGADKPLRITGDPYKVQQAKEMVLELIRD [E6A] | -0.12 ± 0.031
GNAVQFIMIPASKAGLVIGKGGETIKQLQERAGVKMVMIQDGPQNTGADKPLRITGDPYKVQQAKEMVLELIRD [E6F] | -0.217 ± 0.046
GNAVQDIMIPASKAGLVIGKGGETIKQLQERAGVKMVMIQDGPQNTGADKPLRITGDPYKVQQAKEMVLELIRD [E6D] | -0.1 ± 0.043
GNAVQGIMIPASKAGLVIGKGGETIKQLQERAGVKMVMIQDGPQNTGADKPLRITGDPYKVQQAKEMVLELIRD [E6G] | -0.358 ± 0.028
GNAVQHIMIPASKAGLVIGKGGETIKQLQERAGVKMVMIQDGPQNTGADKPLRITGDPYKVQQAKEMVLELIRD [E6H] | -0.086 ± 0.045
GNAVTEIMIPASKAGLVIGKGGETIKQLQERAGVKMVMIQDGPQNTGADKPLRITGDPYKVQQAKEMVLELIRD [Q5T] | 0.013 ± 0.031
GNAVIEIMIPASKAGLVIGKGGETIKQLQERAGVKMVMIQDGPQNTGADKPLRITGDPYKVQQAKEMVLELIRD [Q5I] | 0.014 ± 0.05

Variant | abundance fitness
GNAVYEIMIPASKAGLVIGKGGETIKQLQERAGVKMVMIQDGPQNTGADKPLRITGDPYKVQQAKEMVLELIRD [Q5Y] | -0.003 ± 0.051
GNAVMEIMIPASKAGLVIGKGGETIKQLQERAGVKMVMIQDGPQNTGADKPLRITGDPYKVQQAKEMVLELIRD [Q5M] | 0.056 ± 0.035
GNAVLEIMIPASKAGLVIGKGGETIKQLQERAGVKMVMIQDGPQNTGADKPLRITGDPYKVQQAKEMVLELIRD [Q5L] | -0.029 ± 0.029
GNAVDEIMIPASKAGLVIGKGGETIKQLQERAGVKMVMIQDGPQNTGADKPLRITGDPYKVQQAKEMVLELIRD [Q5D] | 0.021 ± 0.041
GNAVHEIMIPASKAGLVIGKGGETIKQLQERAGVKMVMIQDGPQNTGADKPLRITGDPYKVQQAKEMVLELIRD [Q5H] | -0.108 ± 0.058
GNAVKEIMIPASKAGLVIGKGGETIKQLQERAGVKMVMIQDGPQNTGADKPLRITGDPYKVQQAKEMVLELIRD [Q5K] | 0.016 ± 0.036
GNAVVEIMIPASKAGLVIGKGGETIKQLQERAGVKMVMIQDGPQNTGADKPLRITGDPYKVQQAKEMVLELIRD [Q5V] | 0.04 ± 0.029
GNAVCEIMIPASKAGLVIGKGGETIKQLQERAGVKMVMIQDGPQNTGADKPLRITGDPYKVQQAKEMVLELIRD [Q5C] | -0.006 ± 0.045
GNAVPEIMIPASKAGLVIGKGGETIKQLQERAGVKMVMIQDGPQNTGADKPLRITGDPYKVQQAKEMVLELIRD [Q5P] | -0.726 ± 0.045
GNAVEEIMIPASKAGLVIGKGGETIKQLQERAGVKMVMIQDGPQNTGADKPLRITGDPYKVQQAKEMVLELIRD [Q5E] | 0.128 ± 0.034
GNAVGEIMIPASKAGLVIGKGGETIKQLQERAGVKMVMIQDGPQNTGADKPLRITGDPYKVQQAKEMVLELIRD [Q5G] | -0.036 ± 0.026
GNAVFEIMIPASKAGLVIGKGGETIKQLQERAGVKMVMIQDGPQNTGADKPLRITGDPYKVQQAKEMVLELIRD [Q5F] | -0.063 ± 0.051
GNAVNEIMIPASKAGLVIGKGGETIKQLQERAGVKMVMIQDGPQNTGADKPLRITGDPYKVQQAKEMVLELIRD [Q5N] | -0.083 ± 0.051
GNAVREIMIPASKAGLVIGKGGETIKQLQERAGVKMVMIQDGPQNTGADKPLRITGDPYKVQQAKEMVLELIRD [Q5R] | 0.013 ± 0.025
GNAVAEIMIPASKAGLVIGKGGETIKQLQERAGVKMVMIQDGPQNTGADKPLRITGDPYKVQQAKEMVLELIRD [Q5A] | -0.007 ± 0.03
GNAPQEIMIPASKAGLVIGKGGETIKQLQERAGVKMVMIQDGPQNTGADKPLRITGDPYKVQQAKEMVLELIRD [V4P] | -0.56 ± 0.048
GNAIQEIMIPASKAGLVIGKGGETIKQLQERAGVKMVMIQDGPQNTGADKPLRITGDPYKVQQAKEMVLELIRD [V4I] | 0.097 ± 0.042
GNARQEIMIPASKAGLVIGKGGETIKQLQERAGVKMVMIQDGPQNTGADKPLRITGDPYKVQQAKEMVLELIRD [V4R] | -0.053 ± 0.026
GNAHQEIMIPASKAGLVIGKGGETIKQLQERAGVKMVMIQDGPQNTGADKPLRITGDPYKVQQAKEMVLELIRD [V4H] | 0.031 ± 0.047
GNAKQEIMIPASKAGLVIGKGGETIKQLQERAGVKMVMIQDGPQNTGADKPLRITGDPYKVQQAKEMVLELIRD [V4K] | 0.027 ± 0.037
GNASQEIMIPASKAGLVIGKGGETIKQLQERAGVKMVMIQDGPQNTGADKPLRITGDPYKVQQAKEMVLELIRD [V4S] | -0.18 ± 0.033
GNAEQEIMIPASKAGLVIGKGGETIKQLQERAGVKMVMIQDGPQNTGADKPLRITGDPYKVQQAKEMVLELIRD [V4E] | 0.051 ± 0.034
GNAQQEIMIPASKAGLVIGKGGETIKQLQERAGVKMVMIQDGPQNTGADKPLRITGDPYKVQQAKEMVLELIRD [V4Q] | 0.009 ± 0.04
GNATQEIMIPASKAGLVIGKGGETIKQLQERAGVKMVMIQDGPQNTGADKPLRITGDPYKVQQAKEMVLELIRD [V4T] | 0.029 ± 0.036
GNANQEIMIPASKAGLVIGKGGETIKQLQERAGVKMVMIQDGPQNTGADKPLRITGDPYKVQQAKEMVLELIRD [V4N] | 0.073 ± 0.048

Variant | abundance fitness
GNAFQEIMIPASKAGLVIGKGGETIKQLQERAGVKMVMIQDGPQNTGADKPLRITGDPYKVQQAKEMVLELIRD [V4F] | 0.112 ± 0.047
GNAAQEIMIPASKAGLVIGKGGETIKQLQERAGVKMVMIQDGPQNTGADKPLRITGDPYKVQQAKEMVLELIRD [V4A] | -0.259 ± 0.033
GNAWQEIMIPASKAGLVIGKGGETIKQLQERAGVKMVMIQDGPQNTGADKPLRITGDPYKVQQAKEMVLELIRD [V4W] | -0.105 ± 0.034
GNACQEIMIPASKAGLVIGKGGETIKQLQERAGVKMVMIQDGPQNTGADKPLRITGDPYKVQQAKEMVLELIRD [V4C] | -0.069 ± 0.043
GNAMQEIMIPASKAGLVIGKGGETIKQLQERAGVKMVMIQDGPQNTGADKPLRITGDPYKVQQAKEMVLELIRD [V4M] | 0.11 ± 0.037
GNADQEIMIPASKAGLVIGKGGETIKQLQERAGVKMVMIQDGPQNTGADKPLRITGDPYKVQQAKEMVLELIRD [V4D] | -0.063 ± 0.043
GNALQEIMIPASKAGLVIGKGGETIKQLQERAGVKMVMIQDGPQNTGADKPLRITGDPYKVQQAKEMVLELIRD [V4L] | -0.065 ± 0.03
GNAGQEIMIPASKAGLVIGKGGETIKQLQERAGVKMVMIQDGPQNTGADKPLRITGDPYKVQQAKEMVLELIRD [V4G] | -0.146 ± 0.026
GNAYQEIMIPASKAGLVIGKGGETIKQLQERAGVKMVMIQDGPQNTGADKPLRITGDPYKVQQAKEMVLELIRD [V4Y] | -0.013 ± 0.05
GLAVQEIMIPASKAGLVIGKGGETIKQLQERAGVKMVMIQDGPQNTGADKPLRITGDPYKVQQAKEMVLELIRD [N2L] | 0.09 ± 0.033
GVAVQEIMIPASKAGLVIGKGGETIKQLQERAGVKMVMIQDGPQNTGADKPLRITGDPYKVQQAKEMVLELIRD [N2V] | 0.121 ± 0.033
GHAVQEIMIPASKAGLVIGKGGETIKQLQERAGVKMVMIQDGPQNTGADKPLRITGDPYKVQQAKEMVLELIRD [N2H] | -0.311 ± 0.058
GIAVQEIMIPASKAGLVIGKGGETIKQLQERAGVKMVMIQDGPQNTGADKPLRITGDPYKVQQAKEMVLELIRD [N2I] | 0.168 ± 0.047
GPAVQEIMIPASKAGLVIGKGGETIKQLQERAGVKMVMIQDGPQNTGADKPLRITGDPYKVQQAKEMVLELIRD [N2P] | -0.028 ± 0.038
GMAVQEIMIPASKAGLVIGKGGETIKQLQERAGVKMVMIQDGPQNTGADKPLRITGDPYKVQQAKEMVLELIRD [N2M] | 0.201 ± 0.038
GFAVQEIMIPASKAGLVIGKGGETIKQLQERAGVKMVMIQDGPQNTGADKPLRITGDPYKVQQAKEMVLELIRD [N2F] | 0.043 ± 0.047
GKAVQEIMIPASKAGLVIGKGGETIKQLQERAGVKMVMIQDGPQNTGADKPLRITGDPYKVQQAKEMVLELIRD [N2K] | 0.155 ± 0.034
GWAVQEIMIPASKAGLVIGKGGETIKQLQERAGVKMVMIQDGPQNTGADKPLRITGDPYKVQQAKEMVLELIRD [N2W] | -0.028 ± 0.036
GQAVQEIMIPASKAGLVIGKGGETIKQLQERAGVKMVMIQDGPQNTGADKPLRITGDPYKVQQAKEMVLELIRD [N2Q] | 0.095 ± 0.04
GSAVQEIMIPASKAGLVIGKGGETIKQLQERAGVKMVMIQDGPQNTGADKPLRITGDPYKVQQAKEMVLELIRD [N2S] | 0.128 ± 0.031
GTAVQEIMIPASKAGLVIGKGGETIKQLQERAGVKMVMIQDGPQNTGADKPLRITGDPYKVQQAKEMVLELIRD [N2T] | 0.154 ± 0.034
GEAVQEIMIPASKAGLVIGKGGETIKQLQERAGVKMVMIQDGPQNTGADKPLRITGDPYKVQQAKEMVLELIRD [N2E] | 0.176 ± 0.037
GRAVQEIMIPASKAGLVIGKGGETIKQLQERAGVKMVMIQDGPQNTGADKPLRITGDPYKVQQAKEMVLELIRD [N2R] | 0.032 ± 0.028
GYAVQEIMIPASKAGLVIGKGGETIKQLQERAGVKMVMIQDGPQNTGADKPLRITGDPYKVQQAKEMVLELIRD [N2Y] | -0.124 ± 0.053
